Laboratory results taken from patent US20110300138A1 (published 2011).

B1: K1-18 IgG (antibody, V domains shown)
VH: EVQLVQSGAEVKKPGESLKISCKGSGYSFTNYWIGWVRQMPGKGLEWMGIIYPYDSDTRYSPSFEGQVTISADKSIRTAYLHWSSLKASDTAMYYCVRPRDGSYPYDAFDIWGQGTMVTVSS
VL: EIVLTQSPGTLSLSPGERATLSCRASQSVSNNYLAWYQQKPGQAPRLLIYGASSRATGIPDRFSGSGSGTDFTLTISRLEPEDFAVYYCQHCGSSLRAFGQGTKVEIKR
notes: Human IgG1 kappa purified from hetero-hybridoma supernatant
B2: K1-18 Fab (Fab, V domains shown)
VH: B1 VH
VL: B1 VL
notes: residue limits as in claim 65
B3: K1-70 IgG (antibody, V domains shown)
VH: EVQLVQSGAEVKKPGQSLKISCKASGYSLTDNWIGWVRQKPGKGLEWMGIIYPGDSDTRYSPSFQGQVTISADKSINTAYLQWSSLKASDTAIYYCVGLDWNYNPLRYWGPGTLVTVSS
VL: QSVLTQPPSVSAAPGQKVTISCSGSSSDIGSNYVSWYQQFPGTAPKLLIYDNNKRPSAIPDRFSGSKSGTSATLGITGLQTGDEADYYCGTWDSRLGIAVFGGGTQLTVLG
notes: Human IgG1 lambda purified from hetero-hybridoma supernatant
B4: K1-70 Fab (Fab, V domains shown)
VH: B3 VH
VL: B3 VL
notes: residue limits as in claims 56 and 57

target: T1, TSHR260-alkaline phosphatase (TSHR260-AP) (human, UniProt P05187 23-511); experiment: TSHR260-AP bridge ELISA, full length TSHR on wells; 0.005 µg/mL, diluted in HBD
T1 construct: Fusion of human TSHR amino acids 22-260 (construct codes 1-260, 1-21 being the leader) with secreted alkaline phosphatase, expressed in insect cells; In the ELISA the antibody bridges full length detergent-solubilised TSHR coated on the wells and TSHR260-AP in the liquid phase
Experimental: (§1) An ELISA was established based on the ability of divalent TSHR antibodies to bind with one antigen binding site to TSHR coated onto an ELISA plate well and with the other antigen binding site to TSHR260-AP in a liquid phase i.e. forming a bridge. TSHR in the form of full length detergent-solubilised receptor expressed in CHO cells was coated onto ELISA plate wells via a C-terminal antibody as described previously (Bolton J et al 1999 supra). In the assay 75 μL of start buffer (as described for TRAb ELISA; Bolton J, et al 1999 supra) and 75 μL of test sample (patient sera or monoclonal antibodies) were added to the ELISA plate wells coated with the full length detergent solubilised TSHR and incubated for 2 hours at room temperature with shaking (500 rpm). Then the contents of the wells were removed, the wells washed 3 times with wash buffer (50 mmol/L NaCl, 20 mmol/L Tris pH 7.8, 1% Triton X-100) followed by addition of […] of TSHR260-AP (diluted in wash buffer containing 0.2 g/L MgCl₂-6H₂O and 2 g/L BSA). After incubation for 1 hour at room temperature with shaking (500 rpm) the wells were emptied, washed (3 times) and 100 μL of p-nitrophenyl phosphate (pNpp) substrate (Europa Bioproducts Ltd, Ely, Cambridge UK) added and the plate incubated in the dark for 45 minutes. Thereafter 100 μL of stop solution (1 mol/L NaOH) was added and the absorbance read at 405 nm in an ELISA plate reader. […] In some experiments solubilised preparations of recombinant TSHR containing mutation R255D expressed in CHO cells were used to coat the ELISA plate wells.
(§2) TSHR260-AP is a fusion protein consisting of a fragment of human TSHR (amino acids 22-260) e with alkaline phosphatase. […] Mean absorbance = mean of duplicate determinations.

| Binder | Mean absorbance at 405 nm |
| --- | --- |
| B1 | 0.013 absorbance at 405 nm |
| B2 | -0.011 absorbance at 405 nm |
| B3 | 0.045 absorbance at 405 nm |
| B4 | -0.01 absorbance at 405 nm |

target: T1, TSHR260-alkaline phosphatase …; experiment: TSHR260-AP bridge ELISA, full length TSHR on wells; 250 µg/mL, diluted in assay buffer
Experimental: as §1, §2

| Binder | Mean absorbance at 405 nm |
| --- | --- |
| B1 | 1.2 absorbance at 405 nm |
| B2 | 0.049 absorbance at 405 nm |
| B3 | 1.13 absorbance at 405 nm |
| B4 | 0.056 absorbance at 405 nm |

target: T1, TSHR260-alkaline phosphatase …; experiment: TSHR260-AP bridge ELISA, full length TSHR on wells; 250 µg/mL, diluted in HBD
Experimental: as §1, §2

| Binder | Mean absorbance at 405 nm |
| --- | --- |
| B1 | 0.722 absorbance at 405 nm |
| B2 | -0.007 absorbance at 405 nm |
| B3 | 0.817 absorbance at 405 nm |
| B4 | 0.02 absorbance at 405 nm |

target: T1, TSHR260-alkaline phosphatase …; experiment: TSHR260-AP bridge ELISA, full length TSHR on wells; 10 µg/mL, diluted in assay buffer
Experimental: as §1, §2

| Binder | Mean absorbance at 405 nm |
| --- | --- |
| B1 | 0.8 absorbance at 405 nm |
| B2 | 0.008 absorbance at 405 nm |
| B3 | 0.885 absorbance at 405 nm |
| B4 | 0.033 absorbance at 405 nm |

target: T1, TSHR260-alkaline phosphatase …; experiment: TSHR260-AP bridge ELISA, full length TSHR on wells; 0.1 µg/mL, diluted in assay buffer
Experimental: as §1, §2

| Binder | Mean absorbance at 405 nm |
| --- | --- |
| B1 | 0.545 absorbance at 405 nm |
| B2 | 0.002 absorbance at 405 nm |
| B3 | 0.713 absorbance at 405 nm |
| B4 | 0.007 absorbance at 405 nm |

target: T1, TSHR260-alkaline phosphatase …; experiment: TSHR260-AP bridge ELISA, full length TSHR on wells; 0.1 µg/mL, diluted in HBD
Experimental: as §1, §2

| Binder | Mean absorbance at 405 nm |
| --- | --- |
| B1 | 0.292 absorbance at 405 nm |
| B2 | -0.011 absorbance at 405 nm |
| B3 | 0.44 absorbance at 405 nm |
| B4 | -0.01 absorbance at 405 nm |

target: T1, TSHR260-alkaline phosphatase …; experiment: TSHR260-AP bridge ELISA, full length TSHR on wells; 0.005 µg/mL, diluted in assay buffer
Experimental: as §1, §2

| Binder | Mean absorbance at 405 nm |
| --- | --- |
| B1 | 0.136 absorbance at 405 nm |
| B2 | -0.004 absorbance at 405 nm |
| B3 | 0.085 absorbance at 405 nm |
| B4 | -0.004 absorbance at 405 nm |

target: T1, TSHR260-alkaline phosphatase …; experiment: TSHR260-AP bridge ELISA, full length TSHR on wells; 10 µg/mL, diluted in HBD
Experimental: as §1, §2

| Binder | Mean absorbance at 405 nm |
| --- | --- |
| B1 | 0.66 absorbance at 405 nm |
| B2 | -0.002 absorbance at 405 nm |
| B3 | 0.738 absorbance at 405 nm |
| B4 | 0.018 absorbance at 405 nm |
